One variant from article PMC9918506, “Structural insights into pathogenic mechanism of hypohidrotic ectodermal dysplasia caused by ectodysplasin A variants” (Nature Communications, 2023) can be followed below.

The term Kd denotes the equilibrium constant for the complex coming apart.

The labels stand for the following.
B1: EDA·A1 TNF homology domain (EDA·A1THD, residues 233–391), wild type [human] / EDAR cysteine-rich domains (EDAR_(CRDS), residues 30–150), MBP tag removed [human] (parent)
chain 1: GPSGAADKAGTRENQPAVVHLQGQGSAIQVKNDLSGGVLNDWSRITMNPKVFKLHPRSGELEVLVDGTYFIYSQVEVYYINFTDFASYEVVVDEKPFLQCTRSIETGKTNYNTCYTAGVCLLKARQKIAVKMVHADISINMSKHTTFFGAIRLGEAPAS
chain 2: GGSGGSGGSGGSNCGENEYYNQTTGLCQECPPCGPGEEPYLSCGYGTKDEDYGCVPCPAEKFSKGGYQICRRHKDCEGFFRATVLTPGDMENDAECGPCLPGYYMLENRPRNIYGMVCYSCLLAPPNTKECVG

Variants of B1 are the subject of this experiment. As to the kind of experiment: SPR. Conditions: with EDAR cysteine-rich domains (EDAR_(CRDS), residues 30–150), 50, 25, 12.5, 6.25, 3.125 nM.
Turning to chain 1 R44C, the Kd came to 0.0359 µM.
